Substitutions are numbered along the chain they refer to. Names may count otherwise.
B1: segmentally labeled mCherry-hnRNPA2-LC D290V (ligated construct, G280C) (domain or fragment, human, UniProt P22626-2 181-341, looked up)
chain: MQEVQSSRSGRGGNFGFGDSRGGGGNFGPGPGSNFRGGSDGYGSGRGFGDGYNGYGGGPGGGNFGGSPGYGGGRGGYGGGGPGYGNQGGGYGGGYDNYGCGNYGSGNYNVFGNYNQQPSNYGPMKSGNFGGSRNMGGPYGGGNYGPGGSGGSGGYGGRSRY
B2: GFP-hnRNPA2-LC D290V (domain or fragment, human, UniProt P22626-2 181-341, looked up)
chain: B1 chain with C100G

Assays:
solid-state NMR = molecular target: the molecule itself; assay: solid-state NMR
[1] = molecular target: the molecule itself; assay: urea-driven polymer dissolution

Row | Protein | binding result (solid-state NMR) | binding result [1]
1 | B1 | binds | –
2 | B2 | – | binds
